Test results taken from patent publication US20200407673A1, “DEVICE, KIT AND METHOD FOR THREE-DIMENSIONAL CELL CULTURE” (RIGENERAND S.R.L., priority 2018, published 2020).

Tested on: luciferase positive tumor cells
Assay: efficacy of sTRAIL on luciferase-positive tumor cells grown in the three-dimensional culture device, luciferin light signal
Assay type: cell-based
Conditions: cells grown 72 hours in the device, then 24 hours of treatment; luciferin substrate, luminometer
Procedure: In the culture device 1 the tumor cells “C” which are luciferase-positive are grown for 72 hours and it is possible to monitor the extent of the growth and estimate the number of tumor cells “C” grown inside the culture device 1 by adding the luciferin substrate and detecting the light signal, as shown in the diagram in FIG. 20.
The effectiveness of the sTRAIL biological agent, which is added to the culture medium and is loaded inside the culture device 1, is tested on the tumor mass inside the culture device 1 evaluated at 72 hours.
The efficacy of the treatment is determined after 24 hours by adding the luciferin substrate which is metabolized by the viable tumor cells “C” by the action of the luciferase.
Since the cells “C” that are dead or in apoptosis no longer produce the enzyme, they cannot metabolize the substrate and, consequently, they are no longer able to generate a light signal.

B1: sTRAIL: soluble TNF-related antitumor biological agent apoptosis-inducing ligand; biological cytotoxic agent (protein, UniProt P50591 39-281, looked up)
extracellular domain: TNELKQMQDKYSKSGIACFLKEDDSYWDPNDEESMNSPCWQVKWQLRQLVRKMILRTSEETISTVQEKQQNISPLVRERGPQRVAAHITGTRGRSNTLSSPNSKNEKALGRKINSWESSRSGHSFLSNLHLRNGELVIHEKGFYYIYSQTYFRFQEEIKENTKNDKQMVQYIYKYTSYPDPILLMKSARNSCWSKDAEYGLYSIYQGGIFELKENDRIFVSVTNEHLIDMDHEASFFGAFLVG
modifications: extracellular domain soluble form
- light signal (RLUs, proportional to viable cells) after treatment: light signal is reduced in intensity
